Test results from patent US20210324061A1 (ARGENX BVBA, published 2021).

Biological target: T1, human GARP-TGF-β1 complex (recombinant complex of human GARP and latent human TGF-β1) (human, UniProt Q14392 20-627; P01137 30-278; P01137 279-390)
T1 construct: also called huGARP-TGF-β1; hGARP-TGF-β1
Test: SPR, IgG1 on human GARP-TGF-β1 complex
Source text: The five germlined clones reformatted to human IgG1 were produced by transient transfection in HEK 293E cells.

T1 sequence (Q14392 20-627 limits assumed, chain 1 of 3): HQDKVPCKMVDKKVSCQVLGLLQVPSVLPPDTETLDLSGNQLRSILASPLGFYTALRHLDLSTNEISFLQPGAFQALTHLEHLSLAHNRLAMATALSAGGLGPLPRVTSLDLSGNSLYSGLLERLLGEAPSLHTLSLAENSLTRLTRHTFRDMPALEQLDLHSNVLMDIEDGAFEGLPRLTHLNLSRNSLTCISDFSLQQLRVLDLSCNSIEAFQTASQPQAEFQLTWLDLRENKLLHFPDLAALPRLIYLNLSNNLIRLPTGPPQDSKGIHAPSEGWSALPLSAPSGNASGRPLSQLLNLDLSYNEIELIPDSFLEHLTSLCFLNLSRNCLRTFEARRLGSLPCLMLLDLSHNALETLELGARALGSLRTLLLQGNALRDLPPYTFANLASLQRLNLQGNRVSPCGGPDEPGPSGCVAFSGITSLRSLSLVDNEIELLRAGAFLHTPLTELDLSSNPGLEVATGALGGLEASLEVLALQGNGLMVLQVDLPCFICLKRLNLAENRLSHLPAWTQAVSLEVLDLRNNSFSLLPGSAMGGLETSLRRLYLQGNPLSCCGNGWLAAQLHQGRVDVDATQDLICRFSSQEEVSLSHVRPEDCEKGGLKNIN
T1 sequence (P01137 30-278 limits assumed, chain 2 of 3): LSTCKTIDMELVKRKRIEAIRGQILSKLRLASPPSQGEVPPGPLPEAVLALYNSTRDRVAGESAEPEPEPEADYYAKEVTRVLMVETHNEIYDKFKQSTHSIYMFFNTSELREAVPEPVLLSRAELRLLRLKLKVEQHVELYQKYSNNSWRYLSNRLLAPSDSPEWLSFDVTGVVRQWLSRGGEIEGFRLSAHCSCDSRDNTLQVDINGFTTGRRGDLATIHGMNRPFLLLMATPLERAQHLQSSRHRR
T1 sequence (P01137 279-390 limits assumed, chain 3 of 3): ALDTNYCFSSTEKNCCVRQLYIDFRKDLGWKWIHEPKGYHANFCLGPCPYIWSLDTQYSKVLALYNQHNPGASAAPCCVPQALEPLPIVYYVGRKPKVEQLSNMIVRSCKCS

Row | Binder | Kd [nM] | fold difference (KD vs 17H5) [fold]
1 | 39B6 human IgG1 (antibody, V domains shown, Full human IgG1, made in HEK 293E cells) VH: QVQLVQPGAEVRKPGASVKVSCKASGYRFTSYYIDWVRQAPGQGLEWMGRIDPEDGGTKYAQKFQGRVTMTADTSTSTVYVELSSLRSEDTAVYYCARNEWETVVVGDLMYEYEYWGQGTLVTVSS VL: DIQMTQSPSSLSASVGDRVTITCQASQSISSYLAWYQQKPGQAPKILIYGASRLKTGVPSRFSGSGSGTSFTLTISSLEPEDAATYYCQQYASVPVTFGQGTKVEIK | 0.167 | 1.7
2 | 38F2 human IgG1 (antibody, V domains shown, Full human IgG1, made in HEK 293E cells) VH: QVQLVQPGAELKKPGASVKVSCKASGYRFTSYYIDWVRQAPGQGLEWMGRIDPEDAGTKYAQKFQGRVTFTADTSTSTVYVELSSLRSEDTAVYYCARNEWETVVVGDLTYEYEYWGQGTLVTVSS VL: DIQMTQSPSSLSASVGDRVTITCQASQSISSYLAWYQQKPGKAPNLLIYGASRLKTEVPSRFSGSGSGTDFTLISGLEPEDAGTYYCQQYASVPVTFGQGTKVEIK | 0.48 | 4.8
3 | 39B10 human IgG1 (antibody, V domains shown, Full human IgG1, made in HEK 293E cells) VH: EVQLVQSGAELKKPGASVKVSCKASGYRFTSYYIDWVRQAPGQGLEWMGRIDPEEGGTKYAQKFQGRVTMTADTSTSTAYMELSSLRSEDTAVYYCARNEWETVVVGDLMYEYEYWGQGTLVTVSS VL: DIQMTQSPSSLSASLGDRVTITCQASQSISSYLAWYQQKPGQAPNILIYGASRLKTGVPSRFSGSGSGTDFTLTISGLEAEDFATYYCQQYASVPVTFGQGTKVEIK | 0.262 | 2.6
4 | 39A12 human IgG1 (antibody, V domains shown, Full human IgG1, made in HEK 293E cells; also called 39A12_T) VH: EVQLVQPGAEVKKPGASVKVSCKASGYRFTSYYIDWVRQAPGQGLEWMGRIDPEEGGTKYAQKFQGRVTFTADTSTSTVYVELSSLRSEDTAVYYCARNEWETVVVGDLTYEYEYWGQGTLVTVSS VL: DIQMTQSPSSLSASVGDRVTITCQASQSISSYLAWYQQKPGQAPKILIYGASRLKTGVPSRFSGSGSGTDFTLTISSLQAEDFATYYCQQYASVPVTFGQGTKVEIK | 0.505 | 5.1
5 | 39A5 human IgG1 (antibody, V domains shown, Full human IgG1, made in HEK 293E cells) VH: QVQLVQPGAELRNPGASVKVSCKASGYRFTSYYIDWVRQAPGQGLEWMGRIDPEDGGTKYAQKFQGRVTFTRDTSTSTVYMELSSLRSEDTAVYYCARNEWETVVVGDLMYEYEYWGQGTLVT VL: DIQMTQSPSSLSASLGDRVTITCQASQSISSYLAWYQQKPGQAPKLLIYGASRLKTGVPSRFSGSGSGTDFTLTISSLQPEDAATYYCQQYASVPVTFGQGTKVEIK | 0.298 | 3

Biological target: T1, human GARP-TGF-β1 complex (recombinant …)
Test: SPR Biacore T200, CM5 chip coated with GARP-TGF-β1 complex at 150 RU
Description: (§1) The affinity of all antibodies (including 39B6-A) for GARP-TGF-β1 was tested by BiacoreT200 using a CM5 chip coated with GARP-TGF-β1 complex at 150RU (Table 17) or coated with the antibodies at 200RU (Table 17)

Row | Binder | Fold-difference (KD vs 39B6-A) [fold] | Kd [nM]
6 | 39B6-A IgG4 S228P (antibody, V domains shown, 39B6 with G55A in HCDR2, in the human IgG4 S228P backbone; also called 39B6-ANE) VH: QVQLVQPGAEVRKPGASVKVSCKASGYRFTSYYIDWVRQAPGQGLEWMGRIDPEDAGTKYAQKFQGRVTMTADTSTSTVYVELSSLRSEDTAVYYCARNEWETVVVGDLMYEYEYWGQGTLVTVSS VL: DIQMTQSPSSLSASVGDRVTITCQASQSISSYLAWYQQKPGQAPKILIYGASRLKTGVPSRFSGSGSGTSFTLTISSLEPEDAATYYCQQYASVPVTFGQGTKVEIKR | 1 | 0.991
7 | 39B6-AEE IgG4 S228P (antibody, V domains shown) VH: QVQLVQPGAEVRKPGASVKVSCKASGYRFTSYYIDWVRQAPGQGLEWMGRIDPEDAGTKYAQKFQGRVTMTADTSTSTVYVELSSLRSEDTAVYYCAREEWETVVVGDLMYEYEYWGQGTLVTVSS VL: DIQMTQSPSSLSASVGDRVTITCQASQSISSYLAWYQQKPGQAPKILIYGASRLKTGVPSRFSGSGSGTSFTLTISSLEPEDAATYYCQQYASVPVTFGQGTKVEIKR | 5.8 | 5.79

Biological target: T1, human GARP-TGF-β1 complex (recombinant …)
Test: SPR, Fab in periplasmic extract, off-rate on human GARP-TGF-β1 complex
Description: Masterplates were picked from selection round 2, 3, 4, 5 and 6 (48 clones for each round). Periplasmic extracts were prepared and off-rates were determined by SPR. All clones were DNA-sequenced and amino acid sequences were deduced thereof. The off-rates of these clones were measured as periplasmic extracts on SPR, and compared to the off-rate of Fab 17H5.

Row | Binder | koff [s⁻¹]
8 | Fab 38F2 (Fab, V domains shown, Germlined Fab with human CH1 and Cκ (pCB13), tested as periplasmic extract) VH: QVQLVQPGAELKKPGASVKVSCKASGYRFTSYYIDWVRQAPGQGLEWMGRIDPEDAGTKYAQKFQGRVTFTADTSTSTVYVELSSLRSEDTAVYYCARNEWETVVVGDLTYEYEYWGQGTLVTVSS VL: DIQMTQSPSSLSASVGDRVTITCQASQSISSYLAWYQQKPGKAPNLLIYGASRLKTEVPSRFSGSGSGTDFTLISGLEPEDAGTYYCQQYASVPVTFGQGTKVEIK | 0.000408
9 | Fab 39B6 (Fab, V domains shown, Germlined Fab with human CH1 and Cκ (pCB13), tested as periplasmic extract) VH: QVQLVQPGAEVRKPGASVKVSCKASGYRFTSYYIDWVRQAPGQGLEWMGRIDPEDGGTKYAQKFQGRVTMTADTSTSTVYVELSSLRSEDTAVYYCARNEWETVVVGDLMYEYEYWGQGTLVTVSS VL: DIQMTQSPSSLSASVGDRVTITCQASQSISSYLAWYQQKPGQAPKILIYGASRLKTGVPSRFSGSGSGTSFTLTISSLEPEDAATYYCQQYASVPVTFGQGTKVEIK | 0.000105
10 | Fab 39B10 (Fab, V domains shown, Germlined Fab with human CH1 and Cκ (pCB13), tested as periplasmic extract) VH: EVQLVQSGAELKKPGASVKVSCKASGYRFTSYYIDWVRQAPGQGLEWMGRIDPEEGGTKYAQKFQGRVTMTADTSTSTAYMELSSLRSEDTAVYYCARNEWETVVVGDLMYEYEYWGQGTLVTVSS VL: DIQMTQSPSSLSASLGDRVTITCQASQSISSYLAWYQQKPGQAPNILIYGASRLKTGVPSRFSGSGSGTDFTLTISGLEAEDFATYYCQQYASVPVTFGQGTKVEIK | 0.000236
11 | Fab 39A12 (Fab, V domains shown, Germlined Fab from the phage library with human CH1 and Cκ (pCB13), tested as periplasmic extract) VH: EVQLVQPGAEVKKPGASVKVSCKASGYRFTSYYIDWVRQAPGQGLEWMGRIDPEEGGTKYAQKFQGRVTFTADTSTSTVYVELSSLRSEDTAVYYCARNEWETVVVGDLTYEYEYWGQGTLVTVSS VL: DIQMTQSPSSLSASVGDRVTITCQASQSISSYLAWYQQKPGQAPKILIYGASRLKTGVPSRFSGSGSGTDFTLTISSLQAEDFATYYCQQYASVPVTFGQGTKVEIK | 0.000606
12 | Fab 39A5 (Fab, V domains shown, Germlined Fab with human CH1 and Cκ (pCB13), tested as periplasmic extract) VH: QVQLVQPGAELRNPGASVKVSCKASGYRFTSYYIDWVRQAPGQGLEWMGRIDPEDGGTKYAQKFQGRVTFTRDTSTSTVYMELSSLRSEDTAVYYCARNEWETVVVGDLMYEYEYWGQGTLVT VL: DIQMTQSPSSLSASLGDRVTITCQASQSISSYLAWYQQKPGQAPKLLIYGASRLKTGVPSRFSGSGSGTDFTLTISSLQPEDAATYYCQQYASVPVTFGQGTKVEIK | 0.00019

Biological target: T1, human GARP-TGF-β1 complex (recombinant …)
Test: SPR Biacore T200, CM5 chip coated with the antibody at 200 RU, complex in solution
Description: as §1

Row | Binder | Fold-difference (KD vs 39B6-A) [fold] | Kd [nM]
13 | 39B6-A IgG4 S228P (antibody, V domains shown, 39B6 with G55A in HCDR2, in the human IgG4 S228P backbone; also called 39B6-ANE) VH: QVQLVQPGAEVRKPGASVKVSCKASGYRFTSYYIDWVRQAPGQGLEWMGRIDPEDAGTKYAQKFQGRVTMTADTSTSTVYVELSSLRSEDTAVYYCARNEWETVVVGDLMYEYEYWGQGTLVTVSS VL: DIQMTQSPSSLSASVGDRVTITCQASQSISSYLAWYQQKPGQAPKILIYGASRLKTGVPSRFSGSGSGTSFTLTISSLEPEDAATYYCQQYASVPVTFGQGTKVEIKR | 1 | 1.33
14 | 39B6-AEE IgG4 S228P (antibody, V domains shown) VH: QVQLVQPGAEVRKPGASVKVSCKASGYRFTSYYIDWVRQAPGQGLEWMGRIDPEDAGTKYAQKFQGRVTMTADTSTSTVYVELSSLRSEDTAVYYCAREEWETVVVGDLMYEYEYWGQGTLVTVSS VL: DIQMTQSPSSLSASVGDRVTITCQASQSISSYLAWYQQKPGQAPKILIYGASRLKTGVPSRFSGSGSGTSFTLTISSLEPEDAATYYCQQYASVPVTFGQGTKVEIKR | 76.7 | 102
